Data: patent US20210070886

What was measured:
[1] = target: fluorescein labeled bovine serum albumin (BSA), free in solution (UniProt P02769)
[2] = target: fluorescein-modified BSA encapsulated in octahedra-shaped DNA origami (OCs) (UniProt P02769)
fluorescein-modified BSA encapsulated in octahedra-shaped DNA origami (OCs), sequence (P02769 25-607): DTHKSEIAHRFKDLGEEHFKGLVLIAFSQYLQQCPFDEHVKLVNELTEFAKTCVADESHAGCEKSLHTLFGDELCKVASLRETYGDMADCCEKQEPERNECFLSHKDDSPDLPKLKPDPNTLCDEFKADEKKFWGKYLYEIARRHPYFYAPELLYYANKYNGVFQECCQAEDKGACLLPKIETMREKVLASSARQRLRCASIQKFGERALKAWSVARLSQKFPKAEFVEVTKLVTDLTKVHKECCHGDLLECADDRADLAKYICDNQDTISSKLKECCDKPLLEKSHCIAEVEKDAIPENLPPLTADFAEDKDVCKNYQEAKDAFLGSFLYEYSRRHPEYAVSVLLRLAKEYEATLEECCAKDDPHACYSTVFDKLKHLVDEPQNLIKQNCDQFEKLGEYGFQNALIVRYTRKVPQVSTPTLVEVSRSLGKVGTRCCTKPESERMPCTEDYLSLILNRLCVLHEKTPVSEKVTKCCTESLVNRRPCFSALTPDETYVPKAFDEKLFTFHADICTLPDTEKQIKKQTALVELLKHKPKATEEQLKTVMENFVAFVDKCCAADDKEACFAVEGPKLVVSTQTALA

trypsin, sequence (P00760 24-246): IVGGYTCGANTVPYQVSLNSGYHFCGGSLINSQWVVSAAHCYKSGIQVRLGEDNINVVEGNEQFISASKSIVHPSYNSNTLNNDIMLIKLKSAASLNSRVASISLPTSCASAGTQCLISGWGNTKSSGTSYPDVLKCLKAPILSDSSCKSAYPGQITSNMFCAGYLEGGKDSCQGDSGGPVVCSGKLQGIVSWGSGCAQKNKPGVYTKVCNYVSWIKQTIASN
fluorescein labeled bovine serum albumin (BSA), free in solution, sequence (P02769 25-607): as the sequence (P02769 25-607) above

trypsin was tested, and the “fluorescence enhancement of fluorescein labeled BSA in solution on tryptic digestion” value [1] was “an 85% increase in the fluorescence intensity”, the “fluorescence enhancement on tryptic digestion, BSA encapsulated inside PE2-coated OCs” value [2] was “further reduced to ˜14% by PE2 coating on the OC surface” and the “fluorescence enhancement on tryptic digestion, BSA encapsulated inside bare OCs” value [2] was “reduced to ˜40% by protein encapsulation inside the OCs”.
